Measured values taken from US10253323B2, “Chloroplast transit peptides” (priority 2015, dated 2019).
Entries after “also recorded” stand apart in the source; their conditions may differ.

B1: TraP27: synthetic chloroplast transit peptide, SEQ ID NO:7; tested fused to GFP (pDAB109848) (protein)
chain: MATFTRVCHTARKSFVSLSNSQANSPVSVRFLSLPMPAARPAVKSGVRLWGCRLSFKVSAS
modifications: TraP27
B2: TraP18: chimeric chloroplast transit peptide, SEQ ID NO:4; N-terminus Oryza sativa, C-terminus Amaranthus; tested fused to GFP (pDAB107635) (protein)
chain: MAATMASNAAAAAAVSLDQAVAASAAFSSKTLNFGSNLRISPKFMSLTNKRVGGQSSIVPKIQASVA
modifications: TraP18
B3: TraP19: chimeric chloroplast transit peptide, SEQ ID NO:5; N-terminus Amaranthus, C-terminus Dunaliella salina; tested fused to GFP (pDAB107636) (protein)
chain: MAQATTINNGVHTGQLHHTLPKTQLPKSSKVNDVVPHVYSAPLSVARRSCSKSSIRSTRRLQTTVCS
modifications: TraP19

What was measured:
[1] = test system: dgt-28 transformed T1 Arabidopsis; test: Glyphosate tolerance of dgt-28 transformed T1 Arabidopsis; format: in vivo, Arabidopsis thaliana; conditions: dgt-28 linked with the chloroplast transit peptide, T1 Arabidopsis
Experimental: The Arabidopsis T1 transformants (from transformation with pDAB114286 or pDAB114287) were first selected from the background of untransformed seed using a glufosinate selection scheme. Three flats or 50,000 seed were analyzed for each T1 construct. The selected T1 plants were molecularly characterized (as described above) and events with a range of copy number were sprayed with various rates of commercial glyphosate.
Transgenic T1 Arabidopsis plants containing the dgt-28 transgene were sprayed with differing rates of glyphosate. Elevated rates were applied in this study to determine the relative levels of resistance (420, 840, 1,680 or 3,360 g ae/ha). The typical 1× field usage rate of glyphosate is 1120 g ae/ha. The response of these plants is presented in terms of % visual injury 2 weeks after treatment (WAT). The T1 Arabidopsis plants that were used in this study were of variable copy number for the dgt-28 transgene. The low copy dgt-28 T1 Arabidopsis plants were self-pollinated and used to produce T2 plants.
An arithmetic mean and standard deviation is presented for each construct used for Arabidopsis transformation. The range in individual response is also indicated in the last column for each rate and transformation. Wildtype, non-transformed Arabidopsis thaliana c.v. Columbia served as a glyphosate sensitive control.

[2] = test system: chloroplasts of the tobacco leaf tissues; test: Tobacco transient assay, confocal microscopy of TraP-YFP/GFP; format: cell-based, Nicotiana tabacum; conditions: TraP-YFP or TraP-GFP fusion, Agrobacterium-infiltrated tobacco leaf tissue
Description: The above described chimeric chloroplast transit peptide sequences were initially tested via a transient in planta assay. Polynucleotide sequences which encode the TraP10 (SEQ ID NO:9), TraP11 (SEQ ID NO:10), TraP17 (SEQ ID NO:11), TraP18 (SEQ ID NO:12), TraP19 (SEQ ID NO:13), TraP26 (SEQ ID NO:14), TraP27 (SEQ ID NO:15), and TraP28 (SEQ ID NO:16), chimeric chloroplast transit peptide sequences were synthesized. A linker sequence (SEQ ID NO:17) was incorporated between the TraP sequence and the yfp coding sequence of TraP10 and TraP11. The resulting constructs contained two plant transcription units (PTU). The first PTU was comprised of the Arabidopsis thaliana Ubiquitin 10 promoter (AtUbi10 promoter; Callis, et al., (1990) J. Biol. Chem., 265: 12486-12493), TraP-yellow fluorescent protein fusion gene (TraP-YFP; US Patent App. 2007/0298412) or the TraP-green fluorescent protein fusion gene (TraP-GFP; Sheen et al., (1995) Plant J., 8(5): 777-84), and Agrobacterium tumefaciens ORF 23 3′ untranslated region (AtuORF23 3′UTR; U.S. Pat. No. 5,428,147). The second PTU was comprised of the Cassava Vein Mosaic Virus promoter (CsVMV promoter; Verdaguer et al., (1996) Plant Molecular Biology, 31: 1129-1139), phosphinothricin acetyl transferase (PAT; Wohlleben et al., (1988) Gene, 70: 25-37) or DSM-II (International Patent App. 2008070845), and Agrobacterium tumefaciens ORF 1 3′ untranslated region (AtuORF1 3′UTR; Huang et al., (1990) J. Bacteriol., 172: 1814-1822). Construct pDAB101979 contains the TraP10 chimeric chloroplast transit peptide (FIG. 3). Construct pDAB101980 contains the TraP11 chimeric chloroplast transit peptide (FIG. 4). Construct pDAB107634 contains the TraP17 chimeric chloroplast transit peptide (FIG. 5). Construct pDAB107635 contains the TraP18 chimeric chloroplast transit peptide (FIG. 6). Construct pDAB107636 contains the TraP19 chimeric chloroplast transit peptide (FIG. 7). Construct pDAB109847 contains the TraP26 chimeric chloroplast transit peptide (FIG. 8). Construct pDAB109848 contains the TraP27 chimeric chloroplast transit peptide (FIG. 9). Construct pDAB109849 contains the TraP28 chimeric chloroplast transit peptide (FIG. 10). […] The constructs were confirmed via restriction enzyme digestion and sequencing. Finally, the constructs were transformed into Agrobacterium tumefaciens and stored as glycerol stocks.
From an Agrobacterium glycerol stock, a loop full of frozen culture was inoculated into 2 ml of Yeast-extract Peptone Dextrose (100 μg/ml spectinomycin) in a 14 ml sterile tube. The inoculated media was incubated at 28° C. overnight with shaking at 200 rpm. The following day about 100 μl of the culture was used to inoculate 25 ml of YPD (100 μg/ml spectinomycin) in a 125 ml sterile tri-baffled flask, and incubated overnight at 28° C. overnight with shaking at 200 rpm. The following day the cultures were diluted to an OD600 of 0.5 in sterile ddH2O (pH 8.0). The diluted Agrobacterium strain was mixed with a second Agrobacterium strain containing the P19 helper protein at a ratio of 1:1. The culture were used for tobacco leaf infiltration via the Voinnet method. Voinnet O, Rivas S, Mestre P, and Baulcombe D, (2003) An enhanced transient expression system in plants based on suppression of gene silencing by the p19 protein of tomato bushy stunt virus. The Plant Journal, 33: 949-956. Infiltrated tobacco plants were placed in a Conviron™ set at 16 hr of light at 24° C. for at least three days until being assayed.
Agrobacterium-infiltrated tobacco leaves were severed from the plant, and placed into a petri-dish with water to prevent dehydration. The infiltrated tobacco leaves were observed under blue light excitation with long-pass filter glasses held in place using a Dark Reader Hand Lamp™ (Clare Chemical Research Co.; Dolores, Colo.) to identify undamaged areas of the leaf that were successfully expressing the YFP or GFP reporter proteins. […]

[3] = test system: infiltrated tobacco cells; test: Western blot of infiltrated tobacco plants; format: cell-based, Nicotiana tabacum; conditions: infiltrated tobacco leaf tissue
Experimental: Samples of the infiltrated tobacco plants were assayed via Western blotting. Leaf punches were collected and subjected to bead-milling. About 100-200 mg of leaf material was mixed with 2 BBs (Daisy; Rogers, Ark.) and […] of PBST for 3 minutes in a Kleco™ bead mill. The samples were then spun down in a centrifuge at 14,000× g at 4° C. The supernatant was removed and either analyzed directly via Western blot or immunoprecipitated. The immunoprecipitations were performed using the Pierce Direct IP Kit™ (Thermo Scientific; Rockford, Ill.) following the manufacturer's protocol. Approximately, 50 μg of anti-YFP or anti-GFP was bound to the resin. The samples were incubated with the resin overnight at 4° C. Next, the samples were washed and eluted the following morning and prepped for analysis by combining equal volumes of 2×8M Urea sample buffer and then boiling the samples for 5 minutes. The boiled samples were run on a 4-12% SDS-Bis Tris gel in MOPS buffer for 40 minutes. The gel was then blotted using the Invitrogen iBlot™ (Life Technologies; Carlsbad, Calif.) following the manufacturer's protocol. The blotted membrane was blocked for 10 minutes using 5% non-fat dry milk in PBS-Tween® solution. The membrane was probed with the primary antibody (monoclonal anti-GFP or anti-YFP in rabbit) used at a 1:1000 dilution in the 5% non-fat dry milk in PBS-Tween® solution for 1 hour. Next, the membrane was rinsed three times for five minutes with PBS-Tween® to remove all unbound primary antibody. The membrane was probed with a secondary monoclonal anti-rabbit in goat antibody (Life Technologies) used at a 1:1000 dilution, for 60 minutes. The membrane was washed as previously described and developed by adding Themo BCIP/NBT™ substrate. The colormetric substrate was allowed to develop for 5-10 minutes and then the blots were rinsed with water before being dried.

[4] = test system: chloroplasts of the maize protoplasts; test: Maize protoplast transient assay, microscopy of TraP-GFP; format: cell-based, Zea mays c.v. B104; conditions: TraP-GFP fusion, transfected maize protoplasts, microscopy after 12 hours
Experimental: Seed of Zea mays c.v. B104 were surface sterilized by shaking vigorously in 50% Clorox™ (3% sodium hypochlorite), containing 2-3 drops of Tween® 20, for about 20 minutes. The seeds were rinsed thoroughly with sterile distilled water. The sterile seed were plated onto ½ MS medium in Phytatrays or similar type boxes, and allowed to grow in the dark (28° C.) for 12 to 20 days. A maize protoplast transient assay was used to obtain and transfect maize protoplasts from leaves of Zea mays c.v. B104. This maize protoplast assay is a modification of the system described by Yoo, S.-D., Cho, Y.-H., and Sheen, J., (2007), Arabidopsis Mesophyll Protoplasts: A Versitile Cell System for Transient Gene Expression Analysis, Nature Protocols, 2: 1565-1572. The solutions were prepared as described by Yoo et. al., (2007), with the exception that the mannitol concentration used for the following experiments was change to 0.6 M.
Transfection of 100 to 500 μl of protoplasts (1-5×10^5 cells) was completed by adding the protoplasts to a 2 ml microfuge tube containing about 40 μg of plasmid DNA, at room temperature. The volume of DNA was preferably kept to about 10% of the protoplast volume. The protoplasts and DNA were occasionally mixed during a 5 minute incubation period. An equal volume of PEG solution was slowly added to the protoplasts and DNA, 2 drops at a time with mixing in between the addition of the drops of PEG solution. The tubes were allowed to incubate for about 10 minutes with occasional gentle mixing. Next, 1 ml of W5+ solution was added and mixed by inverting the tube several times. The tube(s) were centrifuged for 5 minutes at 75× g at a temperature of 4° C. Finally, the supernatant was removed and the pellet was resuspended in 1 ml of WI solution and the protoplasts were placed into a small petri plate (35×10 mm) or into 6-well multiwell plates and incubated overnight in the dark at room temperature. Fluorescence of GFP was viewed by microscopy after 12 hours of incubation. The microscopy conditions similar to those previously described were used for the imaging.

Molecule	protection to glyphosate [1]	translocation of YFP or GFP fluorescent protein into chloroplasts [2]	translocation of YFP or GFP fluorescent protein into chloroplasts ([2]; listed as TraP27-GFP)	TraP processed and cleaved from the YFP or GFP protein [3]	translocation of GFP fluorescent protein into chloroplasts [4]	translocation of GFP fluorescent protein into chloroplasts ([4]; listed as TraP18-GFP)	translocation of YFP or GFP fluorescent protein into chloroplasts ([2]; listed as TraP18-GFP)	translocation of GFP fluorescent protein into chloroplasts ([4]; listed as TraP19-GFP)	translocation of GFP fluorescent protein into chloroplasts ([4]; listed as Trap19)	translocation of YFP or GFP fluorescent protein into chloroplasts ([2]; listed as TraP19-GFP)
B1	provide protection to glyphosate	accumulated within the chloroplasts; also recorded: successfully targeted GFP to tobacco chloroplasts	translocated into the chloroplasts	processed and cleaved from the YFP or GFP protein	–	–	–	–	–	–
B2	–	accumulated within the chloroplasts; also recorded: successfully targeted GFP to maize and tobacco chloroplasts	–	processed and cleaved from the YFP or GFP protein	accumulated within the chloroplasts; also recorded: successfully targeted GFP to maize and tobacco chloroplasts	translocated into the chloroplasts	translocated into the chloroplasts	–	–	–
B3	–	accumulated within the chloroplasts; also recorded: successfully targeted GFP to maize and tobacco chloroplasts	–	processed and cleaved from the YFP or GFP protein	successfully targeted GFP to maize and tobacco chloroplasts	–	–	translocated into the chloroplasts	accumulated within the chloroplasts	translocated into the chloroplasts
